# Measurements as given in the supplement of paper PMC10567573.
# ± gives the standard deviation.
# Assay: protein stability index of a GFP-peptide fusion (GPS, HEK-293T) (PSI 1-6); higher = more stable
# Conditions: c terminus: a fixed tail appended
# 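Further: 24-mer peptide tiles fused after GFP, lentivirally expressed, FACS-sorted into six equal bins by GFP/DsRed ratio, decoded by Illumina sequencing, PSI is the read-weighted mean bin number.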
Sequence,protein stability index (treatment: DMSO),"protein stability index (treatment: MLN4924 1 uM, 8 h)"
KQQLVDAFLKLAKQRSVCTWGKNK [FAN1],2.31 ± 0.21,2.25 ± 0.16
KQRGYFFLDERLYCESHAKARVKP [PDLIM4],2.81 ± 0.64,3.11 ± 0.38
KQTIGNSCKACGYRGMLDTHHKLC [EIF5],2.8 ± 0.37,2.81 ± 0.5
KREELCRQIQEEEDEKQRLQNEVR [SSNA1],5.01 ± 0.22,5.1 ± 0.075
KRGFEVVYMTEPIDEYCVQQLKEF [HSP90AB1],2.56 ± 0.35,–
KRKRVKQRINTYVFVGNQLIPQPL [PCMTD1],2.38 ± 0.17,2.73 ± 0.35
KSGEGFIDFIGQVHKTKEQFGQDG [PTPRD],4.24 ± 0.49,4.23 ± 0.17
KSLEGGGTAFDAETDSEMNSQESR [SMG5],5.5 ± 0.15,5.58 ± 0.15
KSMAWCENSICVGFKRDYYLIRVD [VPS39],3 ± 1.3,2.39 ± 0.89
KSPEMPVILEVSLEGSHDTANCEA [RTP4],4.85 ± 0.11,5.07 ± 0.34
KSSIIPFRALKRPLQFLGLFENSL [ZER1],1.9 ± 0.5,2.31 ± 0.45
KTMPKSVVGLHAASKDPREVREAR [EHMT1],4.78 ± 0.09,4.86 ± 0.26
KTPEEAYRALLSGSNPPYLPFRDA [CDC14A],3.27 ± 0.3,3.31 ± 0.25
KTPYDTSRRQEKSAGDADPENGEI [ELOA2],5.3 ± 0.22,5.51 ± 0.17
KVFEELLLDADWSINAGSWMWLSC [CRY1],2.28 ± 0.49,2.58 ± 0.27
KVHYLFPDGKEMAEEYDEKTSELL [DPCD],4.32 ± 0.25,4.42 ± 0.12
KVQELMSTHELEKKELEENFEKLR [MTUS2],4.97 ± 0.54,5.14 ± 0.23
LACGTMSSTCGQLASYPLALVRTR [SLC25A25],1.96 ± 0.16,2.36 ± 0.12
LAGGYTSSLACHRALQDAFSGLFW [MNAT1],2.44 ± 0.12,2.45 ± 1
LAGLSVGRSSLTACSLPLCACLLG [PXN],2.33 ± 0.39,2.33 ± 0.22
LASISTYGFRGEALASISHVAHVT [MLH1],2.19 ± 0.48,2.19 ± 0.23
LAVLGADERIFSLTRRLAHGEELR [HAGHL],2.82 ± 0.23,2.81 ± 0.38
LCDGNPRRPSPVLRHLELLDEFAR [SCNN1D],3.26 ± 0.087,3.53 ± 0.26

Sequence,protein stability index (treatment: DMSO),"protein stability index (treatment: MLN4924 1 uM, 8 h)"
LCKNLNREAQQYSEALASTRILKH [GLIPR2],3.57 ± 0.32,3.74 ± 0.33
LCLNTEDSFVCQCSEGFLINEDLK [MATN2],3.03 ± 0.28,3.38 ± 0.28
LCTPEGWFSCQGPFDMDSCLSRHS [DFFB],2.52 ± 0.5,2.75 ± 0.38
LDAVENQLKWASWELHSLRHCDDD [ZNF24],3.96 ± 0.12,4.03 ± 0.15
LDDEDDDEEDCPNPEEYNLDEPNA [SRPK2],5.57 ± 0.22,5.58 ± 0.24
LDHLSLGEEPVPHQQVEEALSFTL [NEK8],4.1 ± 0.35,4 ± 0.29
LDLKGNNLRAAGAEALGKLLQQNK [LRRC45],4.39 ± 0.19,4.27 ± 0.097
LDLRVKGILSSQAEGLANGPDVLE [EHMT1],4.12 ± 0.2,4.07 ± 0.39
LDVVDNQTEKLDTNITEVDAASVY [CASP6],5.06 ± 0.15,5.25 ± 0.15
LEEFKENAYKDLAWKHGNIHLSAP [PCMTD2],3.33 ± 0.26,3.81 ± 0.12
LEEKDRVLKKQDAFYKEQLARLEE [CHCHD3],5.04 ± 0.25,5.17 ± 0.24
LEKEQVAHIRAERDILVEADGAWV [STK38L],3.8 ± 0.31,3.916 ± 0.026
LESSDLPVALLLAQHKDRSTQLEM [MNAT1],3.47 ± 0.23,3.53 ± 0.3
LFAELGYFTDTDELQLEAANETYE [ATF6],4.04 ± 0.1,4.15 ± 0.24
LFDFDLEVKPVLEVLVGKTIEQSL [RSPH3],2.48 ± 0.42,2.42 ± 0.039
LFLKEGACDELFSYLIEKVKRKKN [PRAME],2.18 ± 0.5,2.21 ± 0.27
LFSEASECMLLVFGIDVKEVDPTG [MAGEA10],2.3 ± 0.69,2.54 ± 0.21
LFVGLYYNVIIGWSIFYFFKSFQY [SLC6A17],–,3.17 ± 1.5
LFVTVTAVNLSVSTLPSLREEEEQ [KCNG1],2.13 ± 0.34,2.18 ± 0.45
LGTKSCSSSCAVHDLIFWRDVKKT [RTN3],2.29 ± 0.45,2.09 ± 0.33
LHAWQINWPARQRGTHAVVGVATA [SPSB4],2.39 ± 0.25,2.31 ± 0.21
LHDARLLRTIPSPYPASKADIPSV [DCAF4],3.36 ± 0.21,3.43 ± 0.11
